# Source: US20220204643A1 (published 2022)
# T1: nudix hydrolase 22, transcript variant 2 (human, UniProt Q9BRQ3 1-303)
# T1 construct: also called NUDT22
# T1 chain: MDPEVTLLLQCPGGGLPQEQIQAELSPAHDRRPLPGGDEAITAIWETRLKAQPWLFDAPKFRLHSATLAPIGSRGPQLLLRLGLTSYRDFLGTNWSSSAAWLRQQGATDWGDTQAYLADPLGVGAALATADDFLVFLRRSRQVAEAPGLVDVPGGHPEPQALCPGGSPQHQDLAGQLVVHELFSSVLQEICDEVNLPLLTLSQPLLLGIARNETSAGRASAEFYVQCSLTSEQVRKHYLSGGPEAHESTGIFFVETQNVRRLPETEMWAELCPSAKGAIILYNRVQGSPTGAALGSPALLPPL
# T2: Rna polymerase iii subunit g (human, UniProt O15318 1-223)
# T2 construct: also called POLR3G
# T2 sequence: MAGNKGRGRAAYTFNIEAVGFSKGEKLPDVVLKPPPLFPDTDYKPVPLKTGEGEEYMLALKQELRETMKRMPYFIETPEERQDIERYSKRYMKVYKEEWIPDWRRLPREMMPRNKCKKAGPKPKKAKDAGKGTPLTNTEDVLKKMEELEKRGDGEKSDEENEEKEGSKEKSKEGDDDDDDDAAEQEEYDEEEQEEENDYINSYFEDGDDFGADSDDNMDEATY
# T3: Vezatin, adherens junctions transmembrane protein (human, UniProt Q9HBM0 56-779 at identity 0.99), limits assumed)
# T3 construct: also called VEZT
# T3 chain: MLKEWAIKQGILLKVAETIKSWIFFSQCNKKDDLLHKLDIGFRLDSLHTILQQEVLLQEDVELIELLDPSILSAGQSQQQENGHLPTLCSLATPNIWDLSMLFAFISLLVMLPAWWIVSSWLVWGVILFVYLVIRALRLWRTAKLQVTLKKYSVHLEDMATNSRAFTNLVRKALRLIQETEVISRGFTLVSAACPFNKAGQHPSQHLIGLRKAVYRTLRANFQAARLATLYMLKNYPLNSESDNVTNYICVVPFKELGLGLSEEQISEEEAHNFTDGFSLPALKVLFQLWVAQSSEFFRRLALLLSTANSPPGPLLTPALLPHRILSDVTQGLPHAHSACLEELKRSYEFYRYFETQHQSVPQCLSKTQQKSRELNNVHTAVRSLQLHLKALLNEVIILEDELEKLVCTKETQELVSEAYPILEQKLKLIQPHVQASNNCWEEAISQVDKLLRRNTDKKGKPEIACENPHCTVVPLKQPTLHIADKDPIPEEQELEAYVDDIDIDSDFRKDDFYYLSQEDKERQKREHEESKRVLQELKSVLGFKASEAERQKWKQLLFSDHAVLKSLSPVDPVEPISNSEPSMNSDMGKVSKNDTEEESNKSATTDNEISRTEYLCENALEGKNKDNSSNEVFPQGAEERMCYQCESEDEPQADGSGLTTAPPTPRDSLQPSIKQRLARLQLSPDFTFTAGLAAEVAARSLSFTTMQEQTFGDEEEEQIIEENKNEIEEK
# T4: grancalcin, transcript variant 4 (human, UniProt P28676 1-217)
# T4 construct: also called GCA
# T4 sequence: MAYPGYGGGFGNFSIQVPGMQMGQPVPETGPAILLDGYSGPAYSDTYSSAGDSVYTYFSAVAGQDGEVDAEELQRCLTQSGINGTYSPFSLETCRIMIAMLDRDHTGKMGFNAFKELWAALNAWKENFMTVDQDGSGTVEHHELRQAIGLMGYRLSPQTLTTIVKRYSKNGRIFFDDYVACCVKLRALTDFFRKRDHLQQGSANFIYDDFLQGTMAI
# T5: F-box protein 2 (human, UniProt Q9UK22 1-296)
# T5 construct: also called FBXO2
# T5 sequence: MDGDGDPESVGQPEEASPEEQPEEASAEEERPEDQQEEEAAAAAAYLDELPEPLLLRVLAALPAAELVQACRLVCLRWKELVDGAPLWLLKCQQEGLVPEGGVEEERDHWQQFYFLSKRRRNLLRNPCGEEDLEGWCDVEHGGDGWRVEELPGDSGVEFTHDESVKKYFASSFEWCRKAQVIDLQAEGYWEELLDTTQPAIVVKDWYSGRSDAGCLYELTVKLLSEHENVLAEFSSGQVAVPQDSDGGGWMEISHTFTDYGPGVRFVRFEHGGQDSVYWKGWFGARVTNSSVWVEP
# T6: charged multivesicular body protein 4B (human, UniProt Q9H444 2-224)
# T6 construct: on protein array; also called CHMP4B
# T6 sequence: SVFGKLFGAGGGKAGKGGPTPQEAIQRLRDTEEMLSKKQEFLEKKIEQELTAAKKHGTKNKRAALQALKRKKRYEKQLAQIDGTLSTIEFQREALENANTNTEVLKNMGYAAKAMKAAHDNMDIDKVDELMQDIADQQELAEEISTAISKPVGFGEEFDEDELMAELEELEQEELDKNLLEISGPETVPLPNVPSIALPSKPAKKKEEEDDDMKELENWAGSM
# T7: endosome associated trafficking regulator 1, transcript variant 2 (human, UniProt Q96C92 59-435)
# T7 construct: on protein array; also called SDCCAG3
# T7 chain: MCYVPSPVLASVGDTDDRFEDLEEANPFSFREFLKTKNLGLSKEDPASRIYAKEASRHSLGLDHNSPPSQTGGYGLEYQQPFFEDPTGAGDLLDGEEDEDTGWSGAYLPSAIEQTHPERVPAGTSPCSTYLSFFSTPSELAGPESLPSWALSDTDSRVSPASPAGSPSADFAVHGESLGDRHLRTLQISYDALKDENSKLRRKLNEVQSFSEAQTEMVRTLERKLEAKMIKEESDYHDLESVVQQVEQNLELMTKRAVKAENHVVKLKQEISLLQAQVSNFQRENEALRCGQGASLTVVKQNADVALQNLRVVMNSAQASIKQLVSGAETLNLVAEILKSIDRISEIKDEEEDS
# T8: oxidation resistance 1, transcript variant 1 (human, UniProt Q8N573 90-874, limits assumed)
# T8 construct: also called OXR1
# T8 sequence: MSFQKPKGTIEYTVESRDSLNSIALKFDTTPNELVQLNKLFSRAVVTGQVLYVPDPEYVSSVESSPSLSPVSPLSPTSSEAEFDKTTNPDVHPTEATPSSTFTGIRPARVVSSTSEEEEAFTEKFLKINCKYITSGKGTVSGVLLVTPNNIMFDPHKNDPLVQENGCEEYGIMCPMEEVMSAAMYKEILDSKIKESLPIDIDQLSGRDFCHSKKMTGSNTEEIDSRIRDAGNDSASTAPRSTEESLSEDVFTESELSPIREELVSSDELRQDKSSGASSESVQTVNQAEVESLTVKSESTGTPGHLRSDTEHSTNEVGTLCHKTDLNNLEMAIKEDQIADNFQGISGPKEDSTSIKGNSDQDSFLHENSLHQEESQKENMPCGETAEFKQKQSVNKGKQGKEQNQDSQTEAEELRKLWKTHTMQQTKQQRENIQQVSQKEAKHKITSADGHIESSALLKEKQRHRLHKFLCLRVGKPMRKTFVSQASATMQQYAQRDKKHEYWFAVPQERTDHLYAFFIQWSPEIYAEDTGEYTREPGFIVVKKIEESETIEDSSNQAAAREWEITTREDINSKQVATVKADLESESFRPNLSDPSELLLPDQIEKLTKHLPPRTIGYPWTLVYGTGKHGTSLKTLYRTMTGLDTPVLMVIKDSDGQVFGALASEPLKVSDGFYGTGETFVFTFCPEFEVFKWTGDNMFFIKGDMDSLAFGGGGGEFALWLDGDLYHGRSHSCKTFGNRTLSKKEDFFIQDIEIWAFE
# Experiments:
# [1] = target: T1, nudix hydrolase 22, transcript variant 2
# [2] = target: T9, sorting nexin 1, transcript variant 1 (human, UniProt Q13596 1-522)
# T9 construct: also called SNX1
# [3] = target: T2, Rna polymerase iii subunit g
# [4] = target: T3, Vezatin, adherens junctions …
# DEAD-box helicase 53 = target: T10, DEAD-box helicase 53 (human, UniProt Q86TM3 1-631)
# T10 construct: also called DDX53
# [5] = target: T4, grancalcin, transcript variant 4
# [6] = target: CRK like proto-oncogene, adaptor protein, transcript variant 1 (human, UniProt P46109 1-303)
# tubulin gamma 1 = target: T11, tubulin gamma 1 (human, UniProt P23258 1-451)
# T11 construct: also called TUBG1
# F-box protein 2 = target: T5, F-box protein 2
# [7] = target: T6, charged multivesicular body protein 4B; experiment: protein array
# [8] = target: T7, endosome associated trafficking …; experiment: protein array
# [9] = target: T8, oxidation resistance 1, transcript …
# T9 sequence (Q13596 whole entry, change not shown): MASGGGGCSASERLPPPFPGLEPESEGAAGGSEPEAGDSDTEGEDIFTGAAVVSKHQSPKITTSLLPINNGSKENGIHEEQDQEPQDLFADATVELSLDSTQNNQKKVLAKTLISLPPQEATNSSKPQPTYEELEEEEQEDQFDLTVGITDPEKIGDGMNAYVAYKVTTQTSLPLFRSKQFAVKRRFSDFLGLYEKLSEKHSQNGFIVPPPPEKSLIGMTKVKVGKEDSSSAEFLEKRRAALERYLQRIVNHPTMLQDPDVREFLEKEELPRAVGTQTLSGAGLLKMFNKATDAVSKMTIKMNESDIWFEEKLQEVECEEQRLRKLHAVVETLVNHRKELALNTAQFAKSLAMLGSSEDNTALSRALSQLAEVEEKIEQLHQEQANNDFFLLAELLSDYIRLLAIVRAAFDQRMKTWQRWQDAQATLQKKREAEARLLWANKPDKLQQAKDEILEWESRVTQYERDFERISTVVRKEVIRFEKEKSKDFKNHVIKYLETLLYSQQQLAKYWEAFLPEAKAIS
# CRK like proto-oncogene, adaptor protein, transcript variant 1, sequence (P46109 whole entry, change not shown): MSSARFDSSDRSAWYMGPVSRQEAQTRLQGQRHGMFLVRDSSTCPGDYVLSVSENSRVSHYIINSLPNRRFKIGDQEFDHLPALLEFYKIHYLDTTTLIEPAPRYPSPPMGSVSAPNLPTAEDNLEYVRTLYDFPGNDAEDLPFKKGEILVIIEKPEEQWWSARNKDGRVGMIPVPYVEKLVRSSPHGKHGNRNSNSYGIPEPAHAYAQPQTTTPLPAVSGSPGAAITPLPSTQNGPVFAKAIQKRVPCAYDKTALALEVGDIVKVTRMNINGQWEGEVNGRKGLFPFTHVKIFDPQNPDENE
# T11 sequence (P23258 whole entry): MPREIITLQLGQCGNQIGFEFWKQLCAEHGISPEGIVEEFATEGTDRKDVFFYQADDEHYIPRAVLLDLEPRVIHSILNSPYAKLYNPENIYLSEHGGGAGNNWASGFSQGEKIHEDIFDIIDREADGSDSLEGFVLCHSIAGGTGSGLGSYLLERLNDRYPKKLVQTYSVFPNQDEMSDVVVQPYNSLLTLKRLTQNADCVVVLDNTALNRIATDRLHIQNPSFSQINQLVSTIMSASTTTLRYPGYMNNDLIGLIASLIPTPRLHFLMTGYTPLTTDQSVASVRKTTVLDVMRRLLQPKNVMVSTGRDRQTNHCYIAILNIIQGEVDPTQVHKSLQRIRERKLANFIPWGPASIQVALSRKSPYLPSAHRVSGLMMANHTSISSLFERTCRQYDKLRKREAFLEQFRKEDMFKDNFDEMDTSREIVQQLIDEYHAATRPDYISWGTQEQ
# T10 sequence (Q86TM3 other isoform, or with tags, fused parts or gaps limits assumed): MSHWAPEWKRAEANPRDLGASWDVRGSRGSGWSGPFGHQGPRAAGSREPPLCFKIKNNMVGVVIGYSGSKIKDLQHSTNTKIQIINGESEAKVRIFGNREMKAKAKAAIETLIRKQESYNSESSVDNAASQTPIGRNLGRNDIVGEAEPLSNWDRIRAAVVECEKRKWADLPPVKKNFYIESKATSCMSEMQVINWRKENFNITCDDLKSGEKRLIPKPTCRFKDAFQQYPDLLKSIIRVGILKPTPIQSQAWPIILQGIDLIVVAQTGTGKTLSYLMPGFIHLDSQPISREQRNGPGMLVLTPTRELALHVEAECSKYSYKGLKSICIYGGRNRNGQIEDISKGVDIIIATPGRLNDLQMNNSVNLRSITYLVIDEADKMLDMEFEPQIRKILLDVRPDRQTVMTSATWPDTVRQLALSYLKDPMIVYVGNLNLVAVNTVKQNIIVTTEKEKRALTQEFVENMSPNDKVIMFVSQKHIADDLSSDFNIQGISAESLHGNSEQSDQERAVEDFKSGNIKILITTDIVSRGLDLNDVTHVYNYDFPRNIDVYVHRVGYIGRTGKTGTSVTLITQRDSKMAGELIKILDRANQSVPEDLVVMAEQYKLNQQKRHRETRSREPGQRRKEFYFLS
binder,measurement,setting,value
"TOVA1007 (antibody, V domains shown) VH: PVQLQESGPGLVNPSQTLSLTCTVSGGSISSGGYCWSWVRQHPGKGLEWIGCIYYIGTTYYMRSLKSRLIISIDTSKNQFSLKLTSVTAADSAVYYCARGGELLGGFGYSGMDVWGQGTTVTVSS VL: not shown",binding result,[1],binds
"TPAN1004 (antibody, V domains shown) VH: QIQLVQSGAEVKKPGASVKVSCKTSGYTFTHYGVAWVRQAPGQGPEWMGWISPYNGNIEYGQKFQGRVTMTTDTSTNTAYMELRSLRYDDTAVYYCARDLDEINSSWLDPWGQGTLIIVSP VL: EIVLTQSPATLSLSPGERATLSCRASQSVSSNYLAWYQQKPGQAPRLLIHGASSRATGFPDRFSGSGSGTDFTLTINRLEPEDFAVYYCQQYGTSPQTFGQGTKVEIKR",binding result,[2],binds
"TPAN1003 (antibody, V domains shown) VH: QVQLVQSGAEVKKPGASVKISCQAFGYNFIDNAIHWVRQAPGQRPEWMGWINAGNGNTRYSQNFQGRVTITKVTSASTAYMEMSRLKSEDTAVYFCARSSKWTDWHFDYWGQGTLVTVSS VL: EIVLTQSPGTLSLSPGETATLSCRASQSVANNYLAWHQQKPGQAPRLLIYGASKRAAGIPDRFSGSGSGTEFTLTISRLEPEDCAVYYCQEYVKSPGFAFGPGTRVDIKR",binding result,[3],binds
"TOVA1005 (antibody, V domains shown) VH: QITLKESGPTLVKPTQTLTLTCTFSGFSLSTNGVGVGWIRQPPGKALEWLALINWDDDKRYSPSLKSRLTITKDTSKNQVVLTMTNLDPVDTATYYCVHARDDYGDSAWSTGPVWGQGTLVTVSS VL: DFLLTQPHSVSESPGKTVTISCTRSSGSIASNYVQWYQQRPGSSPSTVIYEDHQRPSGVPGRFSGSIDSSSNSASLTISGLKTEDEADYFCQSSDSNNHVVFGGGTKLTVLG",binding result,[4],binds
same,binding result,DEAD-box helicase 53,binds
"TPAN1001 (antibody, V domains shown) VH: QVQLVQSGAEVKKPGSSVKVSCKASRGTFSNHAVSWVRQAPGQGLEWVGGIIPVFGPPNYAQKFRGRVTITADRSTNTAYMELNSLRSEDTAVYYCARTQWGTDVEATNPYYYFMDVWGKGTTVTVSS VL: EIVLTQSPGTLSLSPGHRATLSCRASQDVASTYLAWYQQKPGQAPRLLIYGASSRATGIPDRFSGSGSGTDFTLTISRLEPEDFAVFYCQYYGGSPGFTFGPGTKVDFKR",binding result,[5],binds
"TPAN1006 (antibody, V domains shown) VH: QVQLVQSGAEVKKPGASVKLSCKPSGYTFSSYYIHWLRQAPGQGLEWMGIINPSGGYTSSAQKFQGRVTMTRDTSTSTIYMELSSLRAEDTAVYYCARRGEVGTMVRVFRKPFDYWGQGTLVTVSS VL: QSVLTQPPSVSGAPGQRVTISCTGSSSNIGAQYDVHWYKVIPGTAPKLLIYGNDNRPSGVPDRFSGSKSGTSASLAITGLQSEDEADYYCQSNDISLSGSVVFGGGTKLTVLG",binding result,[6],binds
"TPAN1007 (antibody, V domains shown) VH: PVQLVQSGAEVKKPGESLKISCQGSGYNFSRYWIGWVRQMPGKGLEWMGVVFPGDSDIRYSLSFQGHITIYADNSISTAYLQWSSLKASDTAIYYCATTSTMPMPTRGRDWFDPWGQGTLVTVSS VL: PSVLTQPPSVSGAPGQRVTISCTGSSSNIGAGYDVHWYQQLPGTAPKLLIYANTNRPSGVPDRFSGSKSGTSASLAITGLQAEDEADYYCQSYDNSLSGGVFGGGTKLTVLG",binding result,tubulin gamma 1,binds
same,binding result,F-box protein 2,binds
"TBRE1034 (antibody, V domains shown, VH/VL only) VH: QVQLVESGGGLVEPGGSLRLSCAASGFTFSDYYMSWIRQAPGKRLEWISHMSSGGNRRHYADSVRGRFTISRDNAKNSLYLQMNSMRADDTAVYYCARDKRSGMTSDRRIDYWGQGTRVTVSS VL: DIQMTQSPSSLSASVGDRITITCRASQSVGTYLSWFQQKPGKAPKLLIYAASSLQSGVPSRFSGSGSGTDFTLTISSLQPEDFATYFCQQSYSVPPWTFGQGTKVEIKR",binding result,[7],binds
same,binding result,[8],binds
"TPRO1001 (antibody, V domains shown) VH: EVQLVQSGAEVKKPGESLRISCKGSGYSFTSFWISWVRQMPGKGLEWMGRIDPSDSYTNYSPSFQGHVTISADKSISTAFLQWSSLKASDTAMYYCARHQQKYSPISPLDYWGQGTLVTVSS VL: QSALTQPASVSGSPGQSITISCTGTSSDVGGYNYVSWYQQHPGKAPKLMIYDVSNRPSGVSNRFSGSKSGNTASLTISGLQAEDEADYYCSSYTSSSSLVFGGGTKVTVLG",binding result,[9],binds
